The numbers were not newly measured in paper PMC10524267, which cites them from elsewhere.

This series addresses CX3CR1 (Homo sapiens) (UniProt P49238).
Sequence of UniProt P49238 (P49238 whole entry): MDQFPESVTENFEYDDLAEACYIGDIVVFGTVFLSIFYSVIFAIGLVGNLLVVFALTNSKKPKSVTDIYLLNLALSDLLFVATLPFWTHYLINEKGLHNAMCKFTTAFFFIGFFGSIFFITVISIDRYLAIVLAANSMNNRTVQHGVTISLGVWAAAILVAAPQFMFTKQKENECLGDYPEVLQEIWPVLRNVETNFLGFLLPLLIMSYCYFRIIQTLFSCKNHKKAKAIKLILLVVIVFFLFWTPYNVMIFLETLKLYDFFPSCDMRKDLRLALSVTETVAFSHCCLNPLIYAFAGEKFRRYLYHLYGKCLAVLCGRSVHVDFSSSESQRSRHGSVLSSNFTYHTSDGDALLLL

CX3CL1 (from UniProt P78423): the equilibrium dissociation constant (Kd) (commonly the equilibrium constant for the complex coming apart) was 0.91 nM.
